Assay results from patent publication US20140235820A1, “METHODS AND COMPOSITIONS FOR MODULATING THE Wnt PATHWAY” (Genentech, Inc., priority 2010, published 2014).

Tests used:
[1] = biological target: T1, LRP6 E4 (Homo sapiens, UniProt O75581); assay: Biolayer interferometry binding to LRP6 E4
T1 construct: construct E4-T933-Q1253; made in house; host or cells: Tni insect cells (baculovirus, secreted)
T1 sequence (O75581 933-1253): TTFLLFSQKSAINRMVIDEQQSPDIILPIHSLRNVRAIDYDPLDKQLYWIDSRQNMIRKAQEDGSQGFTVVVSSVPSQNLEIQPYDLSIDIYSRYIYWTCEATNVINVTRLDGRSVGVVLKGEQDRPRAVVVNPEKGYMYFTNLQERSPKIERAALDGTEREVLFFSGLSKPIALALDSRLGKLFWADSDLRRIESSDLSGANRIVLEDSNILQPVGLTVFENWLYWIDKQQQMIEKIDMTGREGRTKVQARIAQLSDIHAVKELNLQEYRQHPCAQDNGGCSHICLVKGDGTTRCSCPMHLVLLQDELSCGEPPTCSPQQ
Procedure: (§1) Binding kinetics were measured by biolayer interferometry using an Octet Red instrument (ForteBio) as previously described (11). Streptavidin (SA) biosensors were loaded with biotinylated hLRP6 in 50 mMTris, pH 8, 300 mM NaCl, 5% (v/v) glycerol, and 0.05% (w/v) Triton X-100. The loaded biosensors were washed in the same buffer before carrying out association and dissociation measurements for the indicated times. The Kd of each interaction was determined using steady state-analysis through the Octet Red software v6.3. Each reported value represents an average of three or more experiments at different concentrations, with a fitted experimental curve for which the square of the correlation coefficient (R^2) is above 0.96.
The interaction of the different Dkks and sclerostin with various domains of LRP6 was measured using a biolayer interferometry assay (11). Purified receptors contained individual β-propeller-EGF-like units (E1, E2, or E4), two β-propellers (E1E2 or E3E4), or four β-propellers (E1E4))—as follows:
Human LRP6: construct E1E4-amino acids A20-Q1253 of LPR6; construct E1E2-amino acids A20-E631 of LPR6; construct E3E4 amino acids E631-Q1253 of LPR6; construct E1-amino acids A20-D325 of LPR6; construct E2-amino acids […]-E631 of LPR6; construct E4-T933-Q1253. The individual LRP6 β-propeller E3 could not be expressed.

[2] = biological target: T2, LRP6 E1E2 variants with LRP5 BMD substitutions (Homo sapiens, UniProt O75581, R141M); assay: Steady-state affinity for LRP6 E1E2 variants carrying LRP5 BMD substitutions; assay type: binding; settings: LRP6 Arg141Met vs wild type LRP6 E1E2
T2 construct: construct E1E2-amino acids A20-E631 of LPR6; made in house; host or cells: insect cells (Tni, baculovirus)
T2 sequence (O75581 20-631 R141M): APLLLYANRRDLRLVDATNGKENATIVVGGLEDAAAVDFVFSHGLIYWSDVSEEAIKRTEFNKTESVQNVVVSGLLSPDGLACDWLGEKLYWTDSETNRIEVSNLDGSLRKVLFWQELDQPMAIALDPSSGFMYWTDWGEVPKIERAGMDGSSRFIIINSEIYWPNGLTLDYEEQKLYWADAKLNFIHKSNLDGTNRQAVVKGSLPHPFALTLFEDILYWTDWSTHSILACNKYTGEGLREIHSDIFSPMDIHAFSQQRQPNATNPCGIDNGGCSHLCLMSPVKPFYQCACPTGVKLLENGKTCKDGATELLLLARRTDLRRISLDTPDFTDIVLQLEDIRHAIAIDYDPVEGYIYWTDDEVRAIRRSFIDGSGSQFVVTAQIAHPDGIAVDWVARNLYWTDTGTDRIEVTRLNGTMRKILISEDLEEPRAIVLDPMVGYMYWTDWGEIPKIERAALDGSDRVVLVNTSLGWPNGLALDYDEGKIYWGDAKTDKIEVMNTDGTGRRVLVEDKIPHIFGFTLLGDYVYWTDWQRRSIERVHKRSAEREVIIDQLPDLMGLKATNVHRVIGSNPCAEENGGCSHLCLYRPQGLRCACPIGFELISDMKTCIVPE
Procedure: FIG. 13. Introduction of LRP5 BMD substitutions into LRP6 E1E2 lowers affinity for Wnt inhibitors. The five substitutions characterized are indicated on the y-axis. Steady-state affinity measurements were made for Wnt9b, Dkk1, and sclerostin binding to each of the LRP6 variants.
as §1
Cells transfected with LRP5 variants carrying BMD mutations show reduced binding to sclerostin and are less sensitive to sclerostin inhibition of Wnt10b or Wnt6 signaling (70). To further test the effects of the BMD substitutions, we introduced several of them into LRP6 E1E2, with the results shown in FIG. 13. LRP6 E1E2 Gly158Val could not be expressed in insect cells. […] Importantly, not only is the binding to sclerostin affected (70), but the binding of Dkk1 to its E1 interaction site is also impaired.

binding to LRP6 E4 (in words) [1]	loss in affinity for LRP6 E1E2 Arg141Met [2] [fold]	Substance
undetectable	29	Dkk1: Dickkopf 1 protein, Wnt pathway inhibitor, expressed in insect cells (NSNAIKN)
	31	sclerostin: Sclerostin protein, Wnt pathway inhibitor, expressed in insect cells (LPNAIGR)
